Test results from article doi:10.1101/2024.08.28.610080.

Columns and labels:
Test in all cases: EMSA
[1] = target: POLγA Y951N;POLγB (processivity subunit, B2) (human;human, UniProt P54098;Q9UHN1 26-1239;26-485, Y951N|)
[2] = target: POLγA WT;POLγB (processivity subunit, B2) (human;human, UniProt P54098;Q9UHN1 26-1239;26-485, |)
POLγA WT = POLγA WT (human, UniProt P54098 26-1239)
POLγA Y951N = POLγA Y951N (human, UniProt P54098 26-1239, Y951N)

Measured: binding result

Sequence of POLγA WT (P54098 26-1239): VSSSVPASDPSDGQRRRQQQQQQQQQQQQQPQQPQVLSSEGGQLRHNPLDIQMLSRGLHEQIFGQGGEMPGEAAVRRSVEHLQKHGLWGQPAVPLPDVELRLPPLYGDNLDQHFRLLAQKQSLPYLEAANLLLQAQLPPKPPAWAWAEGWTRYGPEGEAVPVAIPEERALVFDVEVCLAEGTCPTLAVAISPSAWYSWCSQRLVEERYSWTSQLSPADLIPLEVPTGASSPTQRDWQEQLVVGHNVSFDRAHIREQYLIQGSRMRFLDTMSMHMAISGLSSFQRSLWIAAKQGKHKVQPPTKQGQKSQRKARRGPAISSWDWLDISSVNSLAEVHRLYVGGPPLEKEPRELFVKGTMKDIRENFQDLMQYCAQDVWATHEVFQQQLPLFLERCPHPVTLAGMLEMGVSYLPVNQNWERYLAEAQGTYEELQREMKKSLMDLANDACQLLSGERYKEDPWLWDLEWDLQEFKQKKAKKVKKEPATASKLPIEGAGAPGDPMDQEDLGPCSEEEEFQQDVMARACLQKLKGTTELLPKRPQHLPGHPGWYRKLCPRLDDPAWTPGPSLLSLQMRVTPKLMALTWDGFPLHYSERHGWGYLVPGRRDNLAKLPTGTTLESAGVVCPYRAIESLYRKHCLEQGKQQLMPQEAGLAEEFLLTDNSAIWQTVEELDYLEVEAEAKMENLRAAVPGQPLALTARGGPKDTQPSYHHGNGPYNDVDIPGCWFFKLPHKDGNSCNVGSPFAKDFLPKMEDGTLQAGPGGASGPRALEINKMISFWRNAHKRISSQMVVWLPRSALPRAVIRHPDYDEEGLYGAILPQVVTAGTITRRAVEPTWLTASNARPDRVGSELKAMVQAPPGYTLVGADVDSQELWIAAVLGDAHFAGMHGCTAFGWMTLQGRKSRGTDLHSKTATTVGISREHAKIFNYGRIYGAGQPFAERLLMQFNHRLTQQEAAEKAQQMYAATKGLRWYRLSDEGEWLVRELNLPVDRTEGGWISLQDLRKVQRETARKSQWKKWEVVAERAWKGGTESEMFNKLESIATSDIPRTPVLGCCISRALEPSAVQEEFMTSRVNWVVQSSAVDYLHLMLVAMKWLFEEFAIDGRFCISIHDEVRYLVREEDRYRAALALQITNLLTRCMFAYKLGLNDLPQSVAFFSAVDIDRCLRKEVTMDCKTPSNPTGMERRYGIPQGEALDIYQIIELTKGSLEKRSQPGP
Sequence of POLγA WT;POLγB (processivity subunit, B2) (P54098 26-1239, chain 1 of 2): as the sequence (P54098 26-1239) above
Sequence of POLγA WT;POLγB (processivity subunit, B2) (Q9UHN1 26-485, chain 2 of 2): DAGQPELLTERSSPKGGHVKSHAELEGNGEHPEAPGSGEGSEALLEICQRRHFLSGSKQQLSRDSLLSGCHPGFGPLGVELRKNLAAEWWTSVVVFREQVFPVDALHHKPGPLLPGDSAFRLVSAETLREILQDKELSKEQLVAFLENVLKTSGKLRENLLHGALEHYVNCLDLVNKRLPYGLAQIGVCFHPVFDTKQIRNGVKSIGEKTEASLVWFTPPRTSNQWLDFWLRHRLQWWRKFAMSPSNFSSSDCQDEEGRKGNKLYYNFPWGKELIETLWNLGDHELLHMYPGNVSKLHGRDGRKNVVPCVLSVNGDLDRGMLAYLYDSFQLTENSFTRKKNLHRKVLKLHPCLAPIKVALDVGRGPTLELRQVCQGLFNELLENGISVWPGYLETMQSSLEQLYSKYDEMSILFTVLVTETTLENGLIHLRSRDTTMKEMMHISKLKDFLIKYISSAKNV
Sequence of POLγA Y951N;POLγB (processivity subunit, B2) (P54098 26-1239 Y951N, chain 1 of 2): as the sequence (P54098 26-1239) above, with Y926N counted along it
Sequence of POLγA Y951N;POLγB (processivity subunit, B2) (Q9UHN1 26-485, chain 2 of 2): as the sequence (Q9UHN1 26-485, chain 2 of 2) above
Sequence of POLγA Y951N (P54098 26-1239 Y951N): as the sequence (P54098 26-1239) above, with Y926N counted along it

B1: 25/40 nt TET-ddC primer/template (EMSA) (dsDNA)
DNA 1: GCAGTGAATTTCTGCAGGTCGACTC
DNA 2: GCGGGTTGACCTTTGGAGTCGACCTGCAGAAATTCACTGC
modifications: 3'-ddC on both strands
binds: all assays above
